Assay results as given in article PMC12328215, “Interactions between TTYH2 and APOE facilitate endosomal lipid transfer” (Nature, 2025).

Biological target: T1, human TTYH3 (Tweety homologue 3), detergent-solubilized and purified (human, UniProt Q9C0H2)
T1 construct: Tweety homologue 3 (TTYH3), human; gene (Genscript) cloned into the vector pcDXC3MS; Homodimer; source: HEK293 GNTI− cells, transiently transfected, purified in GDN (Strep-Tactin, SEC)
Experiment: SEC; TTYH2 or TTYH3 with a 1.6 molar excess of sybody on a Superose 6 Increase 5/150 GL column; sybody in the TTYH peak fractions detected by SDS–PAGE
Settings: both partners purified

T1 sequence (Q9C0H2 2-523): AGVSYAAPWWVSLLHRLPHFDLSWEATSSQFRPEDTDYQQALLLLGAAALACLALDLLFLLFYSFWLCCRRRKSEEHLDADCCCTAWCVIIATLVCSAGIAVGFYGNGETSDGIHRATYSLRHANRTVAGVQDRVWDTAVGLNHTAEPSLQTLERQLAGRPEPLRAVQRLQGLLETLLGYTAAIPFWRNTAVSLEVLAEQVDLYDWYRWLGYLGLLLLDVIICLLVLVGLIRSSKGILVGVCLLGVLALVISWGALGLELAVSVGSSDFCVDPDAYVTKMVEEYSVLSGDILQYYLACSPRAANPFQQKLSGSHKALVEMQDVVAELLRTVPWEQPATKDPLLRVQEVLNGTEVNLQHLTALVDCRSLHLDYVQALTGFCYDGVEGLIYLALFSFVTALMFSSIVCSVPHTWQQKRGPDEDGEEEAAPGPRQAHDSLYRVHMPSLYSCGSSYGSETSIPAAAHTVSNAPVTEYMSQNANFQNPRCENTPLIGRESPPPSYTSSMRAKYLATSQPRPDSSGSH

B1: sybody Sb1^TTYH2 (VHH)
VHH: QVQLVESGGGLVQAGGSLRLSCTASGFPVAFAQMKWYRQAPGKEREWVAAIWSMGNETTYADSVKGRFTISRDNAKNTVYLQMNSLKPEDTAVYYCAVEVGYGYHGQGTQVTVS
notes: synthetic nanobody from the concave library (short CDR3); also called Syb1; source: E. coli MC1061, periplasmic expression, purified (Ni-NTA, SEC)
binding result: no binding

B2: sybody Sb2^TTYH2 (VHH)
VHH: QVQLVESGGGLVQAGGSLRLSCAASGFPVTNDSMHWYRQAPGKEREWVAAIASQGRGTAYADSVKGRFTISRDNAKSTVYLQMNSLKPEDTAVYYCNVKDYGYDLQWYDYWGQGTQVTVS
notes: synthetic nanobody from the loop library (medium CDR3); For force spectroscopy immobilised on glass by the protocol used for APOE, or added soluble at 20–50 µM; also called Syb2; unlabelled Sb2; source: E. coli MC1061, periplasmic expression, purified (Ni-NTA, SEC)
binding result: no binding
